The record followed here is patent US20140155331A1 (published 2014).

Where no end group is shown, it is not given here. [ ]: non-standard residue; d: D form. Aib = CC(C)(N)C(=O)O

As usually defined, the Kd is the equilibrium constant for the complex coming apart. Low readings indicate tighter binding, high ones weaker binding.

B1: S100B (other)
chain: MSELEKAMVALIDVFHQYSGREGDKHKLKKSELKELINNELSHFLEEIKEQEVVDKVMETLDNDGDGECDFQEFMAFVAMVTTACHEFFEHE

Assay [1] concerns the target pBDC-53. Briefly: fluorescence anisotropy. (Polarisation of emitted light reports the rotation of a fluorescent probe.)
For assay [2], the target named is B1. Briefly: fluorescence anisotropy.

In assay [1], B1 had a Kd of 267 nM.

B2: pBDC-TRTK (pBM-TRTK dimerised with a properly designed crosslinker) (peptide)
peptide: fluorescein-TRTKIDW[Aib]KIL[Aib]GGGCG
modifications: not fully specified (residue 16); also: homodimer: two copies joined at Cys16 through BMH, linker at 16 via BMH, other end not in the chain
For B2, in assay [2], the Kd was found to be 32 nM.

In assay [2], fluorescein-QST[Aib]RH[Aib]KLMFKT[Aib]G [pBM-53 (Aib substituted p53 monomer peptide)] gave a Kd of 4600 nM.
